Key:
[1] = tested on: wild-type B-domain deleted FVIII (FVIII-WT)
[2] = tested on: FVIII-R336Q/R562Q (FVIII-QQ)
Chain of FVIII-R336Q/R562Q (FVIII-QQ) (chain, as listed by the source R336Q R562Q): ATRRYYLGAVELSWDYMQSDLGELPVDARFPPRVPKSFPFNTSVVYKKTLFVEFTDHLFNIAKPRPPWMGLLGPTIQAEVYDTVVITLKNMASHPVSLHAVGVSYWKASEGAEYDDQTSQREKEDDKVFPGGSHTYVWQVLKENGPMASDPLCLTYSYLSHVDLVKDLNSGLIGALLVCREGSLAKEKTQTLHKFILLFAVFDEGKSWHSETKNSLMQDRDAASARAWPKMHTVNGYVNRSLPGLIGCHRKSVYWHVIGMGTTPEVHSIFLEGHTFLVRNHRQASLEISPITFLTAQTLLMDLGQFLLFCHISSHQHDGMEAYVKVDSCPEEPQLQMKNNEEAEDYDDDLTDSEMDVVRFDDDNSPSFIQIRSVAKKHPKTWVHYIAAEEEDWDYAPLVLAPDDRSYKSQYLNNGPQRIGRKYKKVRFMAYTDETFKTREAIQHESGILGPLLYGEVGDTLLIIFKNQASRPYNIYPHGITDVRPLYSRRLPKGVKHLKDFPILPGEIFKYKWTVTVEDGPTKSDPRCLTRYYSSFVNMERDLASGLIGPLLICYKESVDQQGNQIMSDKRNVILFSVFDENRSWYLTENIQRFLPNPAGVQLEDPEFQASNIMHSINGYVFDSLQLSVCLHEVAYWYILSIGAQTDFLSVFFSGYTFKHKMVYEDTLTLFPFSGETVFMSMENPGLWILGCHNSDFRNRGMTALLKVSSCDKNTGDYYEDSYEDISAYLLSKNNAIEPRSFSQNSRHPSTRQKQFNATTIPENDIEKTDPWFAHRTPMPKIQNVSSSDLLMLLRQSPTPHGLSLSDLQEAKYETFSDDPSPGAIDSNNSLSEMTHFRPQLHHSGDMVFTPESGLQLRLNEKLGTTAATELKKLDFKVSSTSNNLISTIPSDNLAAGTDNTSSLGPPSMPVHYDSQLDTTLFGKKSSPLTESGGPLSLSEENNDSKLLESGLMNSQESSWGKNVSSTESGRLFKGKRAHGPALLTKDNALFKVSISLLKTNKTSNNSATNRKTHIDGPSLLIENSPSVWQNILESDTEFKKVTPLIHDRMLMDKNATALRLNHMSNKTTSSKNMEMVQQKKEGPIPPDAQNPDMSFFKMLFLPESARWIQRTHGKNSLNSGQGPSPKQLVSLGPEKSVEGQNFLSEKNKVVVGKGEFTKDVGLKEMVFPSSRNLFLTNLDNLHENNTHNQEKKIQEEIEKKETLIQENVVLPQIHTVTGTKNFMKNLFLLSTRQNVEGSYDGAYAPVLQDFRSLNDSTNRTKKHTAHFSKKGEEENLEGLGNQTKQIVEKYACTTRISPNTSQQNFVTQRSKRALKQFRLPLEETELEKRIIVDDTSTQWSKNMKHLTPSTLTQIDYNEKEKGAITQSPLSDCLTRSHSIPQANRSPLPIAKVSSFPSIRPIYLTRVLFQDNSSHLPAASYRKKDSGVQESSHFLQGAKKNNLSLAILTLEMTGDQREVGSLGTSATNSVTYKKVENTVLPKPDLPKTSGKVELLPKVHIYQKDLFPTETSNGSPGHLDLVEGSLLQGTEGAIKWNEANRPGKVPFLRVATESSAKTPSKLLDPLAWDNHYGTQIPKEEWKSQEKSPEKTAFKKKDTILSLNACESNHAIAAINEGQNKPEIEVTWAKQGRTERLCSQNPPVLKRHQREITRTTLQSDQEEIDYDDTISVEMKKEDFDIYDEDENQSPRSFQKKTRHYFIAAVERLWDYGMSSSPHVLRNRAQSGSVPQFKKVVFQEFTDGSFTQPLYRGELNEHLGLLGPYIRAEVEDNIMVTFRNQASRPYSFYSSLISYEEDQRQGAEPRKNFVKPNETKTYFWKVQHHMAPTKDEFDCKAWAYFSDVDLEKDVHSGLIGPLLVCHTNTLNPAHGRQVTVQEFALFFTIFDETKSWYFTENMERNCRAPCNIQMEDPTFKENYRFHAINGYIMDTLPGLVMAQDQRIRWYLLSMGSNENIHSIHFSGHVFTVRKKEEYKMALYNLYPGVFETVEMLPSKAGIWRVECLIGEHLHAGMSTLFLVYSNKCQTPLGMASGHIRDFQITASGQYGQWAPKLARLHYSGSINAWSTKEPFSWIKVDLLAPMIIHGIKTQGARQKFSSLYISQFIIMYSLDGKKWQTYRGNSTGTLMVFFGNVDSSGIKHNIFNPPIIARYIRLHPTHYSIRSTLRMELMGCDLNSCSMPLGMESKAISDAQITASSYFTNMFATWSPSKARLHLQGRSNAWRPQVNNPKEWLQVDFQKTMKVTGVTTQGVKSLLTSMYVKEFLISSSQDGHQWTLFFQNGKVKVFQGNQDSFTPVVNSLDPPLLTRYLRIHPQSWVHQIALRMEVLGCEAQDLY

Chain of wild-type B-domain deleted FVIII (FVIII-WT) (chain, as listed by the source, stated change not applied): as the sequence (chain, as listed by the source R336Q R562Q) above, with Q336R, Q562R counted along it
Chain of FVIII-R372Q (chain, as listed by the source R372Q): as the sequence (chain, as listed by the source R336Q R562Q) above, with Q336R, R372Q, Q562R counted along it

Row | Substance | loss of FVIII activity (intrinsic Xase assay) after 1-hour APC incubation [1] | residual FVIII activity (intrinsic Xase assay) after incubation with 6 nM APC and 100 nM protein S [1] | residual FVIII activity (intrinsic Xase assay) after 1-hour APC incubation [2] | residual FVIII activity (intrinsic Xase assay) after incubation with 6 nM APC and 100 nM protein S [2] | western blot of reaction products after 30-minute incubation with APC (FVIII-R372Q) | SDS-PAGE of cleavage products after incubation with thrombin [1] | SDS-PAGE of cleavage products after incubation with thrombin [2]
1 | activated protein C (APC) | FVIII-WT lost approximately 75% activity after a 1-hour APC incubation | FVIII-WT lost nearly all function within 15 minutes of combined APC and PS incubation | the protein maintained >90% activity following a 1-hour APC incubation | combined PS and APC incubation also accelerated FVIII-QQ loss of function, albeit to a lesser extent than FVIII-WT | incubating a FVIII-R372Q mutant with APC, which did not produce the A2 fragment |  | 
2 | thrombin |  |  |  |  |  | Thrombin cleaved both proteins to yield fragments representing cleavage at R1689 (A3-C1-C2; Mr=70,000) and R740/R372 (A1, Mr=50,000 and A2, Mr=43,000), corresponding to FVIIIa | Thrombin cleaved both proteins to yield fragments representing cleavage at R1689 (A3-C1-C2; Mr=70,000) and R740/R372 (A1, Mr=50,000 and A2, Mr=43,000), corresponding to FVIIIa

— US20220403005
